This is an account of results in PMC10033377 (Nature structural & molecular biology, 2023).

Series [1] concerns the molecule itself. Nature of the series: SEC. For orientation: Size exclusion chromatography separates by hydrodynamic size, large species first.
Series [2] concerns the molecule itself. The experiment in a line: negative stain EM.

Substitutions are numbered along the chain they refer to. Names and notes keep the numbering of the source.

B1: PRPS1-D52H (enzyme, human)
chain: MPNIKIFSGSSHQDLSQKIADRLGLELGKVVTKKFSNQETCVEIGESVRGEHVYIVQSGCGEINDNLMELLIMINACKIASASRVTAVIPCFPYARQDKKDKSRAPISAKLVANMLSVAGADHIITMDLHASQIQGFFDIPVDNLYAEPAVLKWIRENISEWRNCTIVSPDAGGAKRVTSIADRLNVDFALIHKERKKANEVDRMVLVGDVKDRVAILVDDMADTCGTICHAADKLLSAGATRVYAILTHGIFSGPAISRINNACFEAVVVTNTIPQEDKMKHCSKIQVIDISMILAEAIRRTHNGESVSYLFSHVPL
Consider B1, for which, in series [1], the binding result is “binds”.

B2: PRPS1-V309F (enzyme, human)
chain: B1 chain with H52D, V309F
Regarding B2, the binding result in series [2] was “binds”.

B3: PRPS1-S16P (enzyme, human)
chain: B1 chain with S16P, H52D
Take B3: the binding result in series [2] is “binds”.

B4: PRPS1-I290T (enzyme, human)
chain: B1 chain with H52D, I290T
For the protein B4, the binding result in series [2] was “binds”.
